Patent US20260124223A1, “CANCER IMMUNOTHERAPIES” (Northwestern University, priority 2022, published 2026)

Key:
[1] = target: human FcγRIIB protein (his-tagged) (human) (UniProt P31994); assay: SPR (Biacore T200), his-tagged receptor captured on anti-His CM5 chip, antibody injected
[2] = target: human FcγRIIIA F158 protein (his-tagged) (human) (UniProt P08637); assay: as above
[3] = target: human FcγRIIIA V158 protein (his-tagged) (human) (UniProt P08637); assay: as above
[4] = target: mouse FcγRIV protein (his-tagged) (mouse); assay: ratio of SPR binding to mouse FcγRIV against inhibitory mouse FcγRIIB
[5] = target: mouse FcγRIIB protein (his-tagged) (mouse) (UniProt P08101); assay: SPR (Biacore T200), his-tagged receptor captured on anti-His CM5 chip, antibody injected
[6] = target: mouse FcγRIV protein (his-tagged) (mouse); assay: as above

Sequence of mouse FcγRIV protein (his-tagged) (mouse) (A0A0B4 entry or part of it limits assumed): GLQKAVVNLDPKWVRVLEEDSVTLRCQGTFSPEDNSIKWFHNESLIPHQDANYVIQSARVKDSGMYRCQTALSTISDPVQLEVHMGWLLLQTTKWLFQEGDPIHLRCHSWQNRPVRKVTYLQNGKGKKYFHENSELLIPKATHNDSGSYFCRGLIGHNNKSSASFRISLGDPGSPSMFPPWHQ
Sequence of mouse FcγRIIB protein (his-tagged) (mouse) (P08101 30-210 limits assumed): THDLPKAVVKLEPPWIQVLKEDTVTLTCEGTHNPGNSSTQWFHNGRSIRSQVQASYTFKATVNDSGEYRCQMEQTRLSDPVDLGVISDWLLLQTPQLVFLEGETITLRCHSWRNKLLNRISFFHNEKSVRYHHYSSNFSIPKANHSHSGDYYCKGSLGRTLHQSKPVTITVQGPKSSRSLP
Sequence of human FcγRIIB protein (his-tagged) (human) (P31994 43-217 limits assumed): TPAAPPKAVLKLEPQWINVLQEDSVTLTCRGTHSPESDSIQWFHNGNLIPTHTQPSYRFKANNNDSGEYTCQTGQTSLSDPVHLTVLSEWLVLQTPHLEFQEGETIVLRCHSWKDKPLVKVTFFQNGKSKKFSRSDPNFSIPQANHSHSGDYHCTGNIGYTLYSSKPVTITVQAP
Sequence of human FcγRIIIA V158 protein (his-tagged) (human) (P08637 17-208 F176V limits assumed): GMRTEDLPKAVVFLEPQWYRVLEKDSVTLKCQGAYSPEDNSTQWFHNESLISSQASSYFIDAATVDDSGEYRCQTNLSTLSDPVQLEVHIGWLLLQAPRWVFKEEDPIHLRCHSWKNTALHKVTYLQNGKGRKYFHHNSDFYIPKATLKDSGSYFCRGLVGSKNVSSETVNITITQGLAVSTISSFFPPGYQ
Sequence of human FcγRIIIA F158 protein (his-tagged) (human) (P08637 17-208 limits assumed): as the sequence (P08637 17-208 F176V limits assumed) above, with V160F counted along it

| Kd [1] [nM] | Kd [2] [nM] | Kd [3] [nM] | A/I ratio (IV/IIB) [4] | Kd [5] [nM] | Kd [6] [nM] | Substance |
| --- | --- | --- | --- | --- | --- | --- |
| 3230 | 2.83 | 2.76 | – | – | – | Fc-enhanced anti-human CTLA-4 antibody (hIgG1.DLE) (from UniProt P01857 1-330) |
| – | – | – | 4180 | 7110 | 1.7 | Fc-enhanced mouse reactive anti-CTLA4 antibody (clone 9D9, mIgG2b.DLE) (from UniProt P01867 1-335) |
| – | – | – | 95 | 5800 | 61.3 | anti-mouse CTLA-4 antibody, clone 9D9, mouse IgG2b (unmodified) |
